Laboratory results: patent US9187525B2, “Methods of treating ophthalmic diseases using NPR-B agonists” (Shire Orphan Therapies GmbH, dated 2015)
Numbered stars: 1 amine (or outer) side, 2 acyl side, 3 side chain; on linkers, the order of the positions; unused ones are H or OH. Square brackets hold non-standard residues; d marks the D form. Ends that are not written are not given here. * marks the point of attachment. dap(6263)2 = (R)-2-amino-3-(bis(2-aminoethyl)amino)propanoic acid, NCCN(CCN[*:3])C[C@@H](N[*:1])C(=O)[*:2]; Pro(trans-4-NH2) = O=C([C@@H]1C[C@@H](N[*:3])CN1[*:1])[*:2]; Sni = (S)-nipecotic acid, O=C([C@H]1CCCN([*:1])C1)[*:2]; Egg = 2-Amino-3-piperidin-4-yl-propionic acid; Oic = O=C(O)[C@@H]1C[C@@H]2CCCC[C@@H]2N1; Fhy = Amino-piperidin-3-yl-acetic acid; dDap(Me2) = CN(C)C[C@@H](N)C(=O)O; Hyp = O=C(O)[C@@H]1C[C@@H](O)CN1; Dap(Me2) = CN(C)C[C@H](N)C(=O)O; NMeL = CN[C@@H](CC(C)C)C(=O)O; AR‑201‑58 = not defined here; AR‑201‑59 = not defined here; AR‑201‑62 = not defined here; AR‑201‑69 = not defined here; Tle = CC(C)(C)[C@H](N)C(=O)O; Pip = O=C(O)[C@@H]1CCCCN1; Ac6c = NC1(C(=O)O)CCCCC1; Nle = CCCC[C@H](N)C(=O)O; Octanoyl = CCCCCCCC(=O)*; Orn = NCCC[C@H](N)C(=O)O; dDap = NC[C@@H](N)C(=O)O; Ac5c = NC1(C(=O)O)CCCC1; Api = NC1(C(=O)O)CCNCC1; Et2 = not defined here; Hexanoyl = CCCCCC(=O)*; Nbt = 4-butyl-thiazole; Sbt = 5-butyl-thiazole; Occ = octanoic acid

T1: natriuretic peptide receptor-B (human)
T1 chain: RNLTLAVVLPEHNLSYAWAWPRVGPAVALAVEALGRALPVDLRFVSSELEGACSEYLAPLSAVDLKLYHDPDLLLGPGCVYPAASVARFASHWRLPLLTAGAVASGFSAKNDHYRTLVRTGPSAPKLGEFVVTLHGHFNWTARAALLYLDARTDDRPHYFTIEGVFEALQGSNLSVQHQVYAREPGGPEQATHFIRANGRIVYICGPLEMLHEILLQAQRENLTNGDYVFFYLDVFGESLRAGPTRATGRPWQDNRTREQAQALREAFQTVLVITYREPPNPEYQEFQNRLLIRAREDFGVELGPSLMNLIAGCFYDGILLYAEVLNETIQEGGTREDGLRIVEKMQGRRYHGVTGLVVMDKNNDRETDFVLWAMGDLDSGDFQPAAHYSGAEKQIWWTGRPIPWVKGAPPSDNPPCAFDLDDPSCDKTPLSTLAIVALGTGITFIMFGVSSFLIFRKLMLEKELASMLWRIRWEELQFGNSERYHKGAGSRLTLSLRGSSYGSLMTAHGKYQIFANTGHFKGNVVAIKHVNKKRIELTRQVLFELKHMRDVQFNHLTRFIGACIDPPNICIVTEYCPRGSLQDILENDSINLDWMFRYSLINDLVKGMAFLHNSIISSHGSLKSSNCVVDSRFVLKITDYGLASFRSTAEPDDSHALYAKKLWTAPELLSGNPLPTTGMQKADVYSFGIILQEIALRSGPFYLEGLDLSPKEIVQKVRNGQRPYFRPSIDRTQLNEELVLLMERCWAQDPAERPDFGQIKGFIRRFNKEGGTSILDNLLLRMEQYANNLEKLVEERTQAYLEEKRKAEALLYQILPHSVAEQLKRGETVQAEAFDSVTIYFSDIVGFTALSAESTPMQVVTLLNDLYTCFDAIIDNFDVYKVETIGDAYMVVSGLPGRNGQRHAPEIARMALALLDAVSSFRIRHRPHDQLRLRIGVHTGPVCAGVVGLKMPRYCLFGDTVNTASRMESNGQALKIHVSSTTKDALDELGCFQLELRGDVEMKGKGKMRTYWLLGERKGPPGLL

B1: JAL-0647 (peptide)
peptide: XXFGLKLDRI
HELM: PEPTIDE1{[CCCCCC(=O)[*:2]].[O=C(c1cccc(CN[*:1])c1)[*:2]].F.G.L.K.L.D.R.I.[am]}$$$$V2.0
SMILES: CCCCCC(=O)NCc1cccc(C(=O)N[C@@H](Cc2ccccc2)C(=O)NCC(=O)N[C@@H](CC(C)C)C(=O)N[C@@H](CCCCN)C(=O)N[C@@H](CC(C)C)C(=O)N[C@@H](CC(=O)O)C(=O)N[C@@H](CCCNC(=N)N)C(=O)N[C@H](C(N)=O)[C@@H](C)CC)c1
B2: JAL-1348 (peptide)
peptide: Octanoyl-[Sni]F[dL]L[Pro(trans-4-NH2)](Et2)[NMeL]DRI-NH2
modifications: reading uncertain; also: printed as Occ-Sni-Phe-leu-Leu-Tap(Et2)-Nml-Asp-Arg-Ile-NH2
B3: JAL-1341 (peptide)
peptide: [AR‑201‑62]F[dR]L[Hyp][NMeL]DRI-NH2
modifications: reading uncertain; also: printed as (AR-201-62)-Phe-arg-Leu-Hyp-Nml-Asp-Arg-Ile-NH2
B4: JAL-1342 (peptide)
peptide: [AR‑201‑69]F[dR]L[Hyp][NMeL]DRI-NH2
modifications: reading uncertain; also: printed as (AR-201-69)-Phe-arg-Leu-Hyp-Nml-Asp-Arg-Ile-NH2
B5: JAL-1340 (peptide)
peptide: [AR‑201‑59]F[dR]L[Hyp][NMeL]DRI-NH2
modifications: reading uncertain; also: printed as (AR-201-59)-Phe-arg-Leu-Hyp-Nml-Asp-Arg-Ile-NH2
B6: JAL-0648 (peptide)
peptide: XXFGLKLDRI
HELM: PEPTIDE1{[CCCCCC(=O)[*:2]].[O=C(c1ccc(CN[*:1])cc1)[*:2]].F.G.L.K.L.D.R.I.[am]}$$$$V2.0
SMILES: CCCCCC(=O)NCc1ccc(C(=O)N[C@@H](Cc2ccccc2)C(=O)NCC(=O)N[C@@H](CC(C)C)C(=O)N[C@@H](CCCCN)C(=O)N[C@@H](CC(C)C)C(=O)N[C@@H](CC(=O)O)C(=O)N[C@@H](CCCNC(=N)N)C(=O)N[C@H](C(N)=O)[C@@H](C)CC)cc1
B7: JAL-1339 (peptide)
peptide: [AR‑201‑58]F[dR]L[Hyp][NMeL]DRI-NH2
modifications: reading uncertain; also: printed as (AR-201-58)-Phe-arg-Leu-Hyp-Nml-Asp-Arg-Ile-NH2

Molecular target: T1, natriuretic peptide receptor-B
Assay: cell-based or functional assay

Row | EC50 group, cGMP in GTM-3 cells [µM] | Binder
1 | ≤ 5 | [Occ][dA]F[dR]L[Hyp][NMeL]VRI-NH2 [JAL-1331]
2 | ≤ 15 | B1
3 | ≤ 1 | [Occ][dA]F[Fhy]L[Hyp][NMeL]DRI-NH2 [JAL-1336]
4 | ≤ 15 | Octanoyl-[dA]F[dR]L[Hyp][Pip]DRI-NH2 [JAL-1365]
5 | ≤ 15 | Octanoyl-[dA]F[dL]L[Hyp][NMeL]D[Nle]I-NH2 [JAL-1360]
6 | ≤ 15 | Nbt-[dA]F[dR]L[Hyp][NMeL]DRI-NH2 [JAL-1346]
7 | ≤ 1 | Octanoyl-[dA]F[dL]L[Hyp][Dap(Me2)]DRI-NH2 [JAL-1367]
8 | ≤ 5 | [Occ][dA]F[dR]L[Hyp][NMeL]D[Orn]I-NH2 [JAL-1327]
9 | ≤ 5 | [Occ][dA]F[Egg]L[Hyp][NMeL]DRI-NH2 [JAL-1337]
10 | ≤ 1 | Octanoyl-[dA]F[dL]L[Hyp][NMeL]DR[Ac6c]-NH2 [JAL-1358]
11 | ≤ 5 | [Occ][dA]F[dL]L[Hyp][NMeL]DR[Ac5c]-NH2 [JAL-1335]
12 | ≤ 5 | Octanoyl-[dA]F[dL]L[Hyp][Pip]DRI-NH2 [JAL-1366]
13 | ≤ 1 | Octanoyl-[dA]F[Api]L[Pro(trans-4-NH2)][NMeL]DRI-NH2 [JAL-1350]
14 | ≤ 5 | [Occ][dA]F[dR]L[Hyp][NMeL]TRI-NH2 [JAL-1333]
15 | ≤ 5 | Octanoyl-[dA]F[dL][Dap(Me2)][Hyp][NMeL]DRI-NH2 [JAL-1368]
16 | ≤ 5 | [Occ][dA]F[dL]L[Hyp][NMeL]D[Orn]I-NH2 [JAL-1328]
17 | ≤ 15 | [Sbt][dA]F[dR]L[Hyp][NMeL]DRI-NH2 [JAL-1345]
18 | ≤ 1 | Octanoyl-[Sni]F[dDap(Me2)]L[Pro(trans-4-NH2)][NMeL]DRI-NH2 [JAL-1369]
19 | ≤ 5 | Octanoyl-[dA]F[dR]L[Hyp][Oic]DRI-NH2 [JAL-1364]
20 | ≤ 15 | Hexanoyl-G[dP]FGLKLDRI-NH2 [JAL-0636]

Row | EC50 group, cGMP in GTM-3 cells [µM] | Binder
21 | ≤ 1 | [Occ][dA]F[Api]L[Hyp][NMeL]DRI-NH2 [JAL-1338]
22 | ≤ 1 | Octanoyl-[dA]F[dL]L[Hyp][NMeL]DR[Tle]-NH2 [JAL-1352]
23 | ≤ 1 | [Sbt][Sni]F[dR]L[Hyp][NMeL]DRI-NH2 [JAL-1343]
24 | ≤ 5 | Octanoyl-[dA]F[dL]L[Hyp][NMeL]IRI-NH2 [JAL-1363]
25 | ≤ 5 | [Nbt][Sni]F[dR]L[Hyp][NMeL]DRI-NH2 [JAL-1344]
26 | ≤ 15 | Hexanoyl-S[dP]FGLKLDRI-NH2 [JAL-0638]
27 | ≤ 5 | Octanoyl-[dA]F[dR]L[Hyp][NMeL]DR[Ac6c]-NH2 [JAL-1359]
28 | ≤ 15 | Octanoyl-[dA]F[dR]L[Hyp][NMeL]IRI-NH2 [JAL-1362]
29 | ≤ 5 | B2
30 | ≤ 1 | Octanoyl-[Sni]F[dL]L[Pro(trans-4-NH2)](Et)[NMeL]DRI-NH2 [JAL-1349]
31 | ≤ 5 | B3
32 | ≤ 1 | [Occ][Sni]F[Api]L[Pro(trans-4-NH2)][NMeL]DRI-NH2 [JAL-1351]
33 | ≤ 5 | B4
34 | ≤ 5 | [Occ][dA]F[dL]L[Hyp][NMeL]TRI-NH2 [JAL-1334]
35 | ≤ 5 | [Occ][Sni]F[dap(6263)2]L[Pro(trans-4-NH2)][NMeL]DRI-NH2 [JAL-1370]
36 | ≤ 15 | B5
37 | ≤ 15 | Octanoyl-[dA]F[dR]L[Hyp][NMeL]D[Nle]I-NH2 [JAL-1361]
38 | ≤ 15 | B6
39 | ≤ 15 | B7
40 | ≤ 5 | Octanoyl-[dA]F[dDap](Me2)L[Pro(trans-4-NH2)][NMeL]DRI-NH2 [JAL-1347]
